Assay [1] addresses HLA-A*24:03. Put plainly: IEDB peptide-MHC binding, purified MHC/direct/fluorescence; filed as Kd, often an IC50 or EC50 that approximates it; ≥ and ≤ were set here for values at or beyond the usual limits of such assays.
For assay [2], the target named is HLA-A*23:01. The description is as above.
In assay [3] the target is HLA-B*15:17. As to the kind of experiment: IEDB peptide-MHC binding, purified MHC/competitive/fluorescence; filed as Kd, often an IC50 or EC50 that approximates it; ≥ and ≤ were set here for values at or beyond the usual limits of such assays. The note with it: source organism: Reston ebolavirus.
In assay [4] the target is HLA-B*57:01. Described as above. The note with it: source organism: Reston ebolavirus.
Assay [5] has as its target HLA-A*69:01. The description is as above.
The target of assay [6] is HLA-A*02:01. The assay is described as above.
Assay [7] addresses HLA-B*27:03. Described as above. To be noted: source organism: Reston ebolavirus.
The target in assay [8] is HLA-B*15:01. The assay is described as above. The note with it: source organism: Reston ebolavirus.
The target of assay [9] is HLA-B*51:01. The assay is described as above. The note with it: source organism: Reston ebolavirus.
In assay [10] the target is HLA-B*39:01. The assay is described as above. To be noted: source organism: Reston ebolavirus.
Assay [11] addresses HLA-B*46:01. Described as above. The note with it: source organism: Reston ebolavirus.
In assay [12] the target is HLA-A*26:01. The description is as above. To be noted: source organism: Reston ebolavirus.
For assay [13], the target named is HLA-B*18:01. The description is as above. The note with it: source organism: Reston ebolavirus.
Assay [14] has as its target HLA-A*03:01. As to the kind of experiment: IEDB peptide-MHC binding, purified MHC/direct/fluorescence; filed as Kd, often an IC50 or EC50 that approximates it; ≥ and ≤ were set here for values at or beyond the usual limits of such assays.
Assay [15] concerns the target HLA-A*02:11. Described as above. The note with it: source organism: Reston ebolavirus.
For assay [16], the target named is HLA-A*02:12. The assay is described as above. The note with it: source organism: Reston ebolavirus.
The target of assay [17] is HLA-A*29:02. The description is as above. To be noted: source organism: Reston ebolavirus.
Assay [18] addresses HLA-A*01:01. The description is as above.
Assay [19] addresses HLA-A*68:02. The description is as above. To be noted: source organism: Reston ebolavirus.
In assay [20] the target is HLA-A*02:03. Described as above. The note with it: source organism: Reston ebolavirus.
In assay [21] the target is HLA-A*02:19. The description is as above. The note with it: source organism: Reston ebolavirus.
Assay [22] addresses HLA-A*02:16. Put plainly: IEDB peptide-MHC binding, purified MHC/competitive/fluorescence; filed as Kd, often an IC50 or EC50 that approximates it; ≥ and ≤ were set here for values at or beyond the usual limits of such assays. To be noted: source organism: Human immunodeficiency virus type 1 (Z-84 ISOLATE).
Assay [23] concerns the target HLA-A*02:19. The assay is described as above. The note with it: source organism: Human immunodeficiency virus type 1 (Z-84 ISOLATE).
For assay [24], the target named is HLA-C*15:02. As to the kind of experiment: IEDB peptide-MHC binding, purified MHC/direct/fluorescence; filed as Kd, often an IC50 or EC50 that approximates it; ≥ and ≤ were set here for values at or beyond the usual limits of such assays. The note with it: source organism: Human immunodeficiency virus type 1 (Z-84 ISOLATE).
For assay [25], the target named is HLA-B*45:06. Put plainly: IEDB peptide-MHC binding, purified MHC/competitive/fluorescence; filed as Kd, often an IC50 or EC50 that approximates it; ≥ and ≤ were set here for values at or beyond the usual limits of such assays. The note with it: source organism: Entamoeba histolytica.
In assay [26] the target is HLA-A*31:01. The description is as above. The note with it: source organism: Entamoeba histolytica.
For assay [27], the target named is HLA-B*83:01. Described as above. The note with it: source organism: Entamoeba histolytica.
Assay [28] deals with HLA-B*15:42. The assay is described as above. To be noted: source organism: Entamoeba histolytica.
Assay [29] has as its target HLA-A*32:07. The assay is described as above. The note with it: source organism: Entamoeba histolytica.
In assay [30] the target is HLA-A*11:01. As to the kind of experiment: IEDB peptide-MHC binding, purified MHC/direct/fluorescence; filed as Kd, often an IC50 or EC50 that approximates it; ≥ and ≤ were set here for values at or beyond the usual limits of such assays.
Assay [31] concerns the target HLA-B*35:01. The description is as above. To be noted: source organism: Vibrio vulnificus.
For assay [32], the target named is HLA-A*69:01. The description is as above. The note with it: source organism: Vibrio vulnificus.
In assay [33] the target is HLA-A*02:01. The description is as above. To be noted: source organism: Vibrio vulnificus.
Assay [34] addresses HLA-A*31:01. The assay is described as above. To be noted: source organism: Haemophilus influenzae.
Assay [35] concerns the target HLA-B*15:01. The assay is described as above. The note with it: source organism: Vibrio vulnificus.
For assay [36], the target named is HLA-B*58:01. The description is as above. To be noted: source organism: Haemophilus influenzae.
The target of assay [37] is HLA-B*27:05. Described as above. To be noted: source organism: Haemophilus influenzae.
Assay [38] deals with HLA-C*12:03. Described as above. To be noted: source organism: Yersinia pestis Nepal516.
Assay [39] concerns the target HLA-B*08:01. Described as above. To be noted: source organism: Haemophilus influenzae.
Assay [40] deals with HLA-A*26:01. The description is as above. The note with it: source organism: Haemophilus influenzae.
The target of assay [41] is HLA-B*44:02. The description is as above. To be noted: source organism: Haemophilus influenzae.
In assay [42] the target is HLA-B*07:02. The description is as above. The note with it: source organism: Vibrio vulnificus.
[43] abbreviates: source organism: Vibrio vulnificus CMCP6.
Where [44] appears, read: source organism: Reston ebolavirus.
The mark [45] stands for this setting: source organism: Human immunodeficiency virus type 1 (Z-84 ISOLATE).
Where [46] appears, read: source organism: Entamoeba histolytica.
Setting [47] is: source organism: Haemophilus influenzae.

The Kd is the free concentration of one partner at which half of the binding sites on the other are occupied at equilibrium, for simple one-to-one binding. Lower therefore signals higher affinity.

For PYWQGIWDK, the figures for the Kd in [1] (setting [43]) and in assay [2] (setting [43]) were 0.013 µM and 0.006 µM, respectively.

ITDEINQIK: the dissociation constant Kd in assay [3], in assay [4], in assay [5] (setting [44]), in [6] (setting [44]), in [7] and in assay [8] was at least 20 µM in each case. The Kd in [9], in assay [10], in [11], in [12], in [13] and in assay [14] (setting [44]) was at least 20 µM each time. In addition, the Kd in assay [15], in assay [1] (setting [44]), in assay [16], in assay [17], in assay [2] (setting [44]) and in assay [18] (source organism: Reston ebolavirus - Reston) was at least 20 µM each time. Moreover, the Kd in [19], in [20] and in assay [21] was at least 20 µM in each case.

Consider YIKIFIMIV, for which the Kd in assay [5] (setting [45]), in assay [6] (setting [45]), in assay [22], in [23] and in assay [24] was at least 20 µM each time.

With RMYWGVNPK, the equilibrium dissociation constant (Kd) in assay [25] was at least 5 µM; in assay [26], at most 0.001 µM; in assay [27], at least 5 µM; in assay [28] it was at least 5 µM; in [29], 0.0139 µM; in [14] (setting [46]), 0.0014 µM. For the same sequence, in [30] (setting [46]), the dissociation constant Kd worked out at 0.0016 µM.

On to IMDEPTSSL, for which the Kd is at least 20 µM in assay [14] (setting [47]); 2.07 µM in [31]; 0.0649 µM in [32]; at least 20 µM in assay [30] (setting [47]); 0.0267 µM in assay [33]; at least 20 µM in assay [34]. In addition, the dissociation constant (Kd) was 0.173 µM in assay [35]; at least 20 µM in assay [36]; at least 20 µM in assay [37]; at least 20 µM in assay [38]; at least 20 µM in assay [39]; at least 20 µM in assay [40]. Further, the equilibrium dissociation constant (Kd) in assay [41] was at least 20 µM; in assay [18] (source organism: Vibrio vulnificus), 14.3 µM; in [42], at least 5 µM.

For the origin of these results see the Immune Epitope Database (IEDB).
